This is an account of results in US20230117205A1, “B7-H4 ANTIBODY-DRUG CONJUGATES FOR THE TREATMENT OF CANCER” (SEAGEN INC., priority 2021, published 2023).

The Kd is the constant that tells how readily two partners part at equilibrium.

Assay [1] has as its target hFcγRIIa H131 (biotinylated avi-tagged, fused with monomeric Fc) (human) (UniProt P12318). Briefly: BLI (Octet HTX), biotinylated hFcγRIIa H131 on streptavidin biosensors, ADC in solution, 30 C, 1:1 fit. On the technique in general: Biolayer interferometry detects binding as a change in optical thickness at a sensor tip.
Assay [2] addresses hFcγRIIIa F158 (biotinylated avi-tagged, fused with monomeric Fc) (human) (UniProt P08637). Briefly: BLI (Octet HTX), biotinylated hFcγRIIIa F158 on streptavidin biosensors, ADC in solution, 30 C, 1:1 fit.
Assay [3] has as its target T1, human B7-H4 on cells (human, UniProt Q7Z7D3 25-282).
T1 sequence: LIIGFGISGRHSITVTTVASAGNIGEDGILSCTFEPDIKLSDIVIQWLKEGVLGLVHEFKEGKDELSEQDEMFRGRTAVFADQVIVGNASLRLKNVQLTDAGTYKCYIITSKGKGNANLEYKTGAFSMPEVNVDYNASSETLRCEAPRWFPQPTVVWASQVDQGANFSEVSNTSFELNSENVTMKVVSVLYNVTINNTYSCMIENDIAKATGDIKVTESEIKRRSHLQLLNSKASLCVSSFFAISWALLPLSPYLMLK
Briefly: IHC on cell pellets, SKBR3 cells that express B7-H4 endogenously.

Assay [4] concerns the target T1, human B7-H4 on cells. Briefly: IHC on cell pellets, HCC1569 cells that express B7-H4 endogenously.
The target of assay [5] is T1, human B7-H4 on cells. Briefly: IHC on cell pellets, ZR-75-30 cells that express B7-H4 endogenously.
In assay [6] the target is T1, human B7-H4 on cells. Briefly: IHC on cell pellets, HCC1954 cells that express B7-H4 endogenously.
The target in assay [7] is T1, human B7-H4 on cells. Briefly: IHC on cell pellets, MDA-MB-468 cells that express B7-H4 endogenously.
The target in assay [8] is T1, human B7-H4 on cells. Briefly: cell-based or functional assay.
Assay [9] addresses hFcγRIIa R131 (biotinylated avi-tagged, fused with monomeric Fc) (human) (UniProt P12318). Briefly: BLI (Octet HTX), biotinylated hFcγRIIa R131 on streptavidin biosensors, antibody in solution, 30 C, 1:1 fit.
For assay [10], the target named is hFcγRIIb (biotinylated avi-tagged, fused with monomeric Fc) (human) (UniProt P31994). Briefly: BLI (Octet HTX), biotinylated hFcγRIIb on streptavidin biosensors, antibody in solution, 30 C, 1:1 fit.
hFcγRIIb (biotinylated avi-tagged, fused with monomeric Fc) (human), sequence (P31994 43-217): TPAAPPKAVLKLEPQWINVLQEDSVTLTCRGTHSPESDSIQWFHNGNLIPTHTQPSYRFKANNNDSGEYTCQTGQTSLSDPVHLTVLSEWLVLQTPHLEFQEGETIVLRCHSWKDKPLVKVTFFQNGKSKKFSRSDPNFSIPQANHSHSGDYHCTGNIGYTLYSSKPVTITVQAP
Assay [11] deals with hFcγRIIIa V158 (biotinylated avi-tagged, fused with monomeric Fc) (human) (UniProt P08637). Briefly: BLI (Octet HTX), biotinylated hFcγRIIIa V158 on streptavidin biosensors, antibody in solution, 30 C, 1:1 fit.
hFcγRIIIa V158 (biotinylated avi-tagged, fused with monomeric Fc) (human), sequence (P08637 17-208 F176V): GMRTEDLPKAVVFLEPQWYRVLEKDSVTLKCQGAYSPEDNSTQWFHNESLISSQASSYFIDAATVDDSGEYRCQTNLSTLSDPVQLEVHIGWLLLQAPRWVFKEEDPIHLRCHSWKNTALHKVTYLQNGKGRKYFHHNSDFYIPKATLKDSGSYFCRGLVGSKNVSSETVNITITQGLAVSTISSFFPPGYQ
Assay [12] addresses hFcγRIIIa F158 (biotinylated avi-tagged, fused with monomeric Fc) (human) (UniProt P08637). Briefly: BLI (Octet HTX), biotinylated hFcγRIIIa F158 on streptavidin biosensors, antibody in solution, 30 C, 1:1 fit.
For assay [13], the target named is hFcγRI (biotinylated avi-tagged, fused with monomeric Fc) (human) (UniProt P12314). Briefly: BLI (Octet HTX), biotinylated hFcγRI on streptavidin biosensors, antibody in solution, 30 C, 1:1 fit.
hFcγRI (biotinylated avi-tagged, fused with monomeric Fc) (human), sequence (P12314 16-292): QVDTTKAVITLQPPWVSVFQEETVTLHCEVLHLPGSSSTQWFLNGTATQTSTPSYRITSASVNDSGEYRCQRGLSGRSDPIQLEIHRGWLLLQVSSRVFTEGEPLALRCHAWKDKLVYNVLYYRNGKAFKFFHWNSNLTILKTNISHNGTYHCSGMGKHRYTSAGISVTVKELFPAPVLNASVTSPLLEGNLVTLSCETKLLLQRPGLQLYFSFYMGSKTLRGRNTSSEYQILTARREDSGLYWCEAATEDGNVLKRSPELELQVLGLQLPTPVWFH
In assay [14] the target is hscFcRN (biotinylated avi-tagged, fused with monomeric Fc) (human) (UniProt P55899). Briefly: BLI (Octet HTX), biotinylated hscFcRN on streptavidin biosensors, antibody in solution, pH 6.0, 30 C, 1:1 fit.
hscFcRN (biotinylated avi-tagged, fused with monomeric Fc) (human), sequence (P55899 24-297 limits assumed, form in doubt, chain 1 of 2): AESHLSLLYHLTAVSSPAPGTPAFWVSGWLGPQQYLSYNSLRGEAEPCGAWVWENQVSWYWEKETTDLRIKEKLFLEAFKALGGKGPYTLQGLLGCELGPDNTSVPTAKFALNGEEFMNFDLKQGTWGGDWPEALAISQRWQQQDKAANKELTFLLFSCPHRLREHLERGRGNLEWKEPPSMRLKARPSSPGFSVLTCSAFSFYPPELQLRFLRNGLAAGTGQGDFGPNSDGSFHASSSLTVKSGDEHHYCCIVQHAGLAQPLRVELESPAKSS
hscFcRN (biotinylated avi-tagged, fused with monomeric Fc) (human), sequence (chain, as listed by the source limits assumed, form in doubt, chain 2 of 2): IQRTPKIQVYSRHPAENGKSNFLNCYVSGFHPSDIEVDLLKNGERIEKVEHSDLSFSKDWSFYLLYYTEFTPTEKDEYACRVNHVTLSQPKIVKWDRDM

hFcγRIIa R131 (biotinylated avi-tagged, fused with monomeric Fc) (human), sequence (P12318 34-217 H167R): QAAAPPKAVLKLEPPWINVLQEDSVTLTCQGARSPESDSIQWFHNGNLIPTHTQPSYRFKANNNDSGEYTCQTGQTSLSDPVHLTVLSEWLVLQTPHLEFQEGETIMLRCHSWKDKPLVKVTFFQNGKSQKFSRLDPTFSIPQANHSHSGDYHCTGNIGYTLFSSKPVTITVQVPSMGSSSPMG

With SGN-B7H4V (antibody), the figures for the Kd in [1] and in assay [2] were 4.2 µM and 10.4 µM, respectively.
Take anti-B7-H4 antibody clone D1M8I: the intensity score came to 3 in assay [3]; 3 in assay [4]; 1 in assay [5]; 2 in assay [6]; 3 in assay [7].
In assay [8], non-binding control ADC (antibody) showed a x50 (ng/mL), in vitro cytotoxicity, MDA-MB-468, 96 h, 3D spheroid, CellTiter-Glo greater than 1000 ng/mL; a x50 (ng/mL), in vitro cytotoxicity, MX1, 96 h, 3D spheroid, CellTiter-Glo greater than 1000 ng/mL; a x50 (ng/mL), in vitro cytotoxicity, SKBR3, 96 h, 3D spheroid, CellTiter-Glo greater than 1000 ng/mL.
Take “positive control mAb (the anti-CD70 mAb h1F6) (antibody)”: the Kd stood at 3.1 µM in [9]; 29 µM in assay [10]; 780 nM in assay [11]; 4.8 µM in assay [12]; 1.8 nM in assay [13]; 10.3 nM in assay [14].

B1: B7H41001 mAb quenched fluorophore conjugate (antibody, human IgG1, kappa, V domains shown)
VH: QLQLQESGPGLVKPSETLSLTCTVSGGSIKSGSYYWGWIRQPPGKGLEWIGNIYYSGSTYYNPSLRSRVTISVDTSKNQFSLKLSSVTAADTAVYYCAREGSYPNQFDPWGQGTLVTVSS
VL: EIVMTQSPATLSVSPGERATLSCRASQSVSSNLAWYQQKPGQAPRLLIYGASTRATGIPARFSGSGSGTEFTLTISSLQSEDFAVYYCQQYHSFPFTFGGGTKVEIKR
modifications: Cy5 dye and quencher pair attached by the same vc linker as in SGN-B7H4V; sites not stated
Regarding B1, in [8], the “apparent half-life of the increase of fluorescent signal (internalization, quenched fluorophore assay on SKBR3 and MX-1 cells)” value is 3.2 to 4.9 h.
